Measurements as given in paper PMC4258549.

Tests used:
biotinylated C4b (human) [1] = experiment: AlphaScreen or HTRF
biotinylated C4b (human) [2] = experiment: AlphaScreen or HTRF; remark: listed apart in the source
[3] = target: complement component C4b (human); experiment: AUC
biotinylated C4b (human) [4] = experiment: SPR

Binder | IC50 (biotinylated C4b (human) [1]) [nM] | IC50 (biotinylated C4b (human) [2]) [nM] | stoichiometry N [3] | IC50 (biotinylated C4b (human) [4]) [nM] | Kd (biotinylated C4b (human) [2]) [nM]
complement component C2, recombinant, full-length (natural protein) APSCPQNVNISGGTFTLSHGWAPGSLLTYSCPQGLYPSPASRLCKSSGQWQTPGATRSLSKAVCKPVRCPAPVSFENGIYTPRLGSYPVGGNVSFECEDGFILRGSPVRQCRPNGMWDGETAVCDNGAGHCPNPGISLGAVRTGFRFGHGDKVRYRCSSNLVLTGSSERECQGNGVWSGTEPICRQPYSYDFPEDVAPALGTSFSHMLGATNPTQKTKESLGRKIQIQRSGHLNLYLLLDCSQSVSENDFLIFKESASLMVDRIFSFEINVSVAIITFASEPKVLMSVLNDNSRDMTEVISSLENANYKDHENGTGTNTYAALNSVYLMMNNQMRLLGMETMAWQEIRHAIILLTDGKSNMGGSPKTAVDHIREILNINQKRNDYLDIYAIGVGKLDVDWRELNELGSKKDGERHAFILQDTKALHQVFEHMLDVSKLTDTICGVGNMSANASDQERTPWHVTIKPKSQETCRGALISDQWVLTAAHCFRDGNDHSLWRVNVGDPKSQWGKEFLIEKAVISPGFDVFAKKNQGILEFYGDDIALLKLAQKVKMSTHARPICLPCTMEANLALRRPQGSTCRDHENELLNKQSVPAHFVALNGSKLNINLKMGVEWTSCAEVVSQEKTMFPNLTDVREVVTDQFLCSGTQEDESPCKGESGGAVFLERRFRFFQVGLVSWGLYNPCLGSADKNSRKRAPRSKVPPPRDFHINLFRMQPWLRQHLGDVLNFLPL | 180 | 460 | – | – | –
extracellular adherence protein (Eap), recombinant, full-length, untagged (natural protein) AAKPLDKSSSTLHHGHSNIQIPYTITVNGTSQNILSSLTFNKNQNISYKDIENKVKSVLYFNRGISDIDLRLSKQAEYTVHFKNGTKRVIDLKSGIYTADLINTSDIKAISVNVDTKKQPKDKAKANVQVPYTITVNGTSQNILSNLTFNKNQNISYKDLEGKVKSVLESNRGITDVDLRLSKQAKYTVNFKNGTKKVIDLKSGIYTANLINSSDIKSININVDTKKHIENKAKRNYQVPYSINLNGTSTNILSNLSFSNKPWTNYKNLTSQIKSVLKHDRGISEQDLKYAKKAYYTVYFKNGGKRILQLNSKNYTANLVHAKDVKRIEITVKTGTKAKADRYVPYTIAVNGTSTPILSKLKISNKQLISYKYLNDKVKSVLKSERGISDLDLKFAKQAKYTVYFKNGKKQVVNLKSDIFTPNLFSAKDIKKIDIDVKQYTKSKKK | – | – | 1 | 50 | 185
